Results published in the nanobody polyreactivity screen of Harvey et al. (2022).

Test: yeast display, Sf9 membrane polyspecificity reagent, FACS + sequencing; frameworks hold sequencing errors
Method in brief: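 Using colony PCR, genes from sorted yeast display clones were amplified, then sequenced on MiSeq at 2 × 250 and filtered by CDR length. The clones had been stained with 10% biotinylated, detergent-solubilized Sf9 membrane reagent for 1 hour at 4 °C and sorted by FACS into low and high (top ~1%) gates on anti-HA and streptavidin fluorescence. Polyreactivity labels come from the gate of origin.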

Row | Sequence | polyreactivity (PSR sort gate)
1 | QVQLVESGVGLVQAARSLRLSCAASGRTFGSYAMGWYRQAPGKEREFVAGISYGGGRTYYADSVKGRFTISRDTAKNTVYLQMNSLKPADTAVYYCAADGVYRYNYPYLYTYDYWGQGTQVTVSS | low polyreactivity
2 | QVQLVESGVGLVQAGGSHRLSCAASGRTLWYYAIGWYRQAPGKERELVASIRRRTGSTYYAESVKGRFTISRDNAKNTVYLQLNSLKPEDTAVYYCAAKGFLRNGYWGQGTQVTVSS | high polyreactivity
3 | QVQLVESGVGLVQAGGSHRLSCAASGSIFGFYVMGWYRQAPGKERELVAAISRGGTRTYYADSVKGRFTISRDNAKNTVYLQMNSLKPEDTAVYYCAKYDGGSGTGPRSDYWGQGTQVTVSS | high polyreactivity
4 | QVQLVESGVGLVQAGGSLLLICAASGRIFGANAMGLYRQAPGKERELVAAISRTGGSTNYADSVKGRFTISRDNAINTVFLQMYSLKPEDTAVYYCNAVYRYAHPMEYWGQGTQVTVSS | high polyreactivity
5 | QVQLVESGVGLVQAGGSLLLSCAASGFISGSYAIGWYRQAPGKERELVADISRRGSSTYYADSVKGRFTISRDNAKNTVYLQMNSLKPEDTAVYVCNAVPYGNGAMDYWGQGTQVTVSS | high polyreactivity
6 | QVQLVESGVGLVQAGGSLRLICAASGSTFQPNVMGWYRQAPGKERELDAAIRGSSGNTYYADSVKGRFTISRDHAKNTVYLQMNSLKPEDTAVYYCAALFLFKTSSPYRYYYWGQGTQVTVSS | high polyreactivity
7 | QVQLVESGVGLVQAGGSLRLICAASGSTFYRNAMGWYRHAPGKERELVAGISRRGGSTYYADSVKGRFTISRDIAKNRVYLQMNSLIPEDTAVYYCNADYPGIPHNDYWGQGTQVNVSS | low polyreactivity
8 | QVQLVESGVGLVQAGGSLRLSCAASGFIFPYYTMGWFRPAPGKERELVAAINVSGGSTYYADSVKGRFTISRDNAKNTVYVQMNSLKPEDTAVYYCAAVGGRFVGRSTMDYWGQGTQVTVSS | low polyreactivity
9 | QVQLVESGVGLVQAGGSLRLSCAASGFIFYNYAMGWYRQAPGKERELVASITSGGGTNYADSVKGRFTISRDNAKNTVYLQMNSLKPEDTAVYYCAVRGRGRFNGYGYWGQGTQVTVSS | high polyreactivity
10 | QVQLVESGVGLVQAGGSLRLSCAASGFTFRRYAMGWYRQAPGKERELVAAISIRGGRTYYADSVKGRFTISRDNAKNTVYLQMNSLKPEDTAVYYCAADGVYALDVESDSWGQGTQVTVSS | high polyreactivity
11 | QVQLVESGVGLVQAGGSLRLSCAASGFTFSYYAMGWYRKAPGKERELVAGITTGGGTNYADSVKGRFTISRDNAKNTVYLQMNSLKPEDPAVYYCNAVGAHWVSYSSPVRFDYWGQGTQVTVSS | low polyreactivity
12 | QVQLVESGVGLVQAGGSLRLSCAASGFTFYSNAMGWYRQAPGKERELVAAITGRVGRTYYADSVKGRFTISRDNAKNTVYLLMNSLKPEDTAVYYCAAVYQVSTWGGRYYFRQGYDYWGQGTQVTVSS | high polyreactivity
13 | QVQLVESGVGLVQAGGSLRLSCAASGIIFFFYAMGWYIQAPGKERELVAAISDDGVSTDYADSVKGRFTISRDNAKNTVYLQMNSLKPEDTAVYYCSAKNERVYPWFSFGYWGQGTQVTVSS | low polyreactivity
14 | QVQLVESGVGLVQAGGSLRLSCAASGIIFLENAMGWYRQAPGKERELVAGISSGGNTNYADSVKGRFTISRDNAKNTDYLQMNSLKPEDTAVYYCNTDWYLPRYVLLGYFSGTEDSWGQGTQVTVSS | low polyreactivity
15 | QVQLVESGVGLVQAGGSLRLSCAASGITFREYAMGWYRQAPGKERELVAAIRYSGGSTYYADSVKGRFTISRDNAMNTVYLQMNSLKPEDTAVYYCAADPRRTLSPQLSDYWGLGTQVTVSS | high polyreactivity
16 | QVQLVESGVGLVQAGGSLRLSCAASGNIFGYYAMGWYRQAPGKERELVAAISRSGTRTYYADSVKGRFTISRDNAKNTVYLQMNSLKPEDTAVYYCNAAKSPARFQVNNFDYWGQGTQVTVSS | high polyreactivity
